pKd: −log10 of the molar value.
Assays:
Test in all cases: Kd (EC50 corrected by depletion factor)
[1] = molecular target: T1, CSTF2 (UniProt P33240)
T1 sequence: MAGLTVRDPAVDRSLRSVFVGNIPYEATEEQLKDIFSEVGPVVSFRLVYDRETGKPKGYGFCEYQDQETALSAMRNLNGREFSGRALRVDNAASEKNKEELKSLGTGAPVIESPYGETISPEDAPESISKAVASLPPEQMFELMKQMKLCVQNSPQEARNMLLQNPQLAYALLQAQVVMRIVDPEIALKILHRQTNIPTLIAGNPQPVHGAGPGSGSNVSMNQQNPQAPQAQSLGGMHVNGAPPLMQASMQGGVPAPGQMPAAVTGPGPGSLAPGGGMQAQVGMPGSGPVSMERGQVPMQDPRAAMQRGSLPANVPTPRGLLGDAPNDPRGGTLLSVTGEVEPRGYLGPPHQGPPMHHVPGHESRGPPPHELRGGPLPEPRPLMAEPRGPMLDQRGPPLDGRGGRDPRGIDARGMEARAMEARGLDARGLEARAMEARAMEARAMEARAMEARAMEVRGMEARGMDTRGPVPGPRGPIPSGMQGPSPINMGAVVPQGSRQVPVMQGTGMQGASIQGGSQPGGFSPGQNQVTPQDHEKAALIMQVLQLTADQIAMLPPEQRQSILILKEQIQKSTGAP
Outline: (§1)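 HEK293-FT lysate (2.5 mg protein/well) was treated with free RNA oligos (0 nM to 30 μM) for 1 h at 4°C, then with the same oligos on NHS-Sepharose beads for 30 min at 4°C. Bound proteins were quantified by label-free LC-MS/MS relative to the control. EC50 came from a four-parameter log-logistic fit, and Kd is EC50 times a protein-dependent depletion factor.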

[2] = molecular target: T2, DAZAP1 (UniProt Q96EP5)
T2 sequence: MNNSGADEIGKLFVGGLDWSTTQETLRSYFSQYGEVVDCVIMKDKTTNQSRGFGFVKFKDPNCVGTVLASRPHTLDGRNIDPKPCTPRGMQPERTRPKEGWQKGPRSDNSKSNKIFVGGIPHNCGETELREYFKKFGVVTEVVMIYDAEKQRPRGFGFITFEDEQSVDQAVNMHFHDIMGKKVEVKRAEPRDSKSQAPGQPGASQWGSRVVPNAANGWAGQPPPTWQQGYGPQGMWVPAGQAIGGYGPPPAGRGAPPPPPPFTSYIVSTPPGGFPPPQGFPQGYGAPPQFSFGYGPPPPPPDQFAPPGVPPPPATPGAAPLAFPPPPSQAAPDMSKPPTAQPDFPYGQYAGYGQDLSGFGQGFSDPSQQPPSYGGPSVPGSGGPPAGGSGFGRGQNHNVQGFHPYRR
Outline: as §1

[3] = molecular target: T3, FIP1L1 (UniProt Q6UN15)
T3 sequence: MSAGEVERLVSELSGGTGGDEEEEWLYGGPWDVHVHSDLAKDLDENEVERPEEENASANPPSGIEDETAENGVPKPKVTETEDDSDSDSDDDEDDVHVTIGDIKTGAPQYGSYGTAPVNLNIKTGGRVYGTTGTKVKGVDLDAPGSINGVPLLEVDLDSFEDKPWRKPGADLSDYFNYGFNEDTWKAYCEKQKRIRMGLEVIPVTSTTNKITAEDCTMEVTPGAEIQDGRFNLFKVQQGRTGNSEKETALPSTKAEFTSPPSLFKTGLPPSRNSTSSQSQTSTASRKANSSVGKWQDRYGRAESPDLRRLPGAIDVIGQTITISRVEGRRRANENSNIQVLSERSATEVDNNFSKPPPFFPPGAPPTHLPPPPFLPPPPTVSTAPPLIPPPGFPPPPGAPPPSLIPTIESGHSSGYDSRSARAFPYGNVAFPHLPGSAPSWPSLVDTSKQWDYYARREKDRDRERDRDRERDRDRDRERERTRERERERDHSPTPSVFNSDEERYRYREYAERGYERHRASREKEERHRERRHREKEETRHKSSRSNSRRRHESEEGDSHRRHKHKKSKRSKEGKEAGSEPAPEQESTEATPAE
Outline: as §1

[4] = molecular target: HNRNPAB (UniProt Q99729)
Sequence of HNRNPAB (Q99729 whole entry): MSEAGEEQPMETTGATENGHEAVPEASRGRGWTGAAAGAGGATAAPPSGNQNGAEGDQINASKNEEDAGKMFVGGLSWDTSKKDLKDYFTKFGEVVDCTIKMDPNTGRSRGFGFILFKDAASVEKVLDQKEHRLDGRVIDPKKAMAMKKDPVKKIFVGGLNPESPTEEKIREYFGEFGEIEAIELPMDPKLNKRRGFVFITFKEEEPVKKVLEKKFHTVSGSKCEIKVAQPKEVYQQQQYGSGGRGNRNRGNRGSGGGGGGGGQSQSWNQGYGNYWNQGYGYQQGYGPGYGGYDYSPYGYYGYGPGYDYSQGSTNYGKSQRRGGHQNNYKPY
Outline: as §1

[5] = molecular target: T4, ISY1 (UniProt Q9ULR0)
T4 sequence: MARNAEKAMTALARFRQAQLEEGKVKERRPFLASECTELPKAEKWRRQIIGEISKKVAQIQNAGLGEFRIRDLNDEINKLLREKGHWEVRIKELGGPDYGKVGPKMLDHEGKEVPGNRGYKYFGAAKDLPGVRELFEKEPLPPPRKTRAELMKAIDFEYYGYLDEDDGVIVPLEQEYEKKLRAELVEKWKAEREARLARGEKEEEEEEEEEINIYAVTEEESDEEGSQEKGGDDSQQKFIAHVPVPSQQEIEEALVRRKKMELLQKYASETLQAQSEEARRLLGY
Outline: as §1

[6] = molecular target: T5, LSM2 (UniProt Q9Y333)
T5 sequence: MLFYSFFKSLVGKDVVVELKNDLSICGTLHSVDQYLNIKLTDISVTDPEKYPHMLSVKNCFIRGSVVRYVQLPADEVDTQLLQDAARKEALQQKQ
Outline: as §1

[7] = molecular target: T6, LSM7 (UniProt Q9UK45)
T6 sequence: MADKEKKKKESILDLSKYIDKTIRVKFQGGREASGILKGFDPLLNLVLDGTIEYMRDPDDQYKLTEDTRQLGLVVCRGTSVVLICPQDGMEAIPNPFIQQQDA
Outline: as §1

[8] = molecular target: T7, RBM7 (UniProt Q9Y580)
T7 sequence: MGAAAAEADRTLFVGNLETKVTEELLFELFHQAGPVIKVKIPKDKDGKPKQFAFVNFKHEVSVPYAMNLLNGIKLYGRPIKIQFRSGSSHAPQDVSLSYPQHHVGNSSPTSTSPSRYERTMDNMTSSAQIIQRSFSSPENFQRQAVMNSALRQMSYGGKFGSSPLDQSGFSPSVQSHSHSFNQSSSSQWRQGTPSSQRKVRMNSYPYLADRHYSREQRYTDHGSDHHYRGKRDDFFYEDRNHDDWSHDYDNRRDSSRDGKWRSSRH
Outline: as §1

[9] = molecular target: SRSF9 (UniProt Q13242)
Sequence of SRSF9 (Q13242 whole entry): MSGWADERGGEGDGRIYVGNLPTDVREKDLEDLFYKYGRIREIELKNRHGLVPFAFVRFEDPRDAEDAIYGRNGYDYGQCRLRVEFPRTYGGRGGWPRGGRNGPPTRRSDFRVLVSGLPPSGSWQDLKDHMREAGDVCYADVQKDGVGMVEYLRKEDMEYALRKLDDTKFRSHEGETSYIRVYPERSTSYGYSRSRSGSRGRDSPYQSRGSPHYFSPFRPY
Outline: as §1

Sequence	pKd [1]	pKd [2]	pKd [3]	pKd [4]	pKd [5]	pKd [6]	pKd [7]	pKd [8]	pKd [9]
UAUUUAU	6.54	6.54	6.32	5.64	6.38	6.51	6.57	7.09	5.23
CUGUCCU	–	–	–	–	–	–	–	–	5.65
AAUAAA	8.11	6.95	8.08	6.33	6.70	7.28	6.85	6.81	–
